From publication PMC4232355

Target: recombinant integrin αvβ3 (UniProt P06756)
Assay: ELISA; integrin competitive binding assay: wells coated with 0.05 µg/well recombinant integrin αvβ3; 5 nM biotinylated-GRGDS with or without various peptides (20 nM) or serially diluted cyclic-(GRGDSP), 3 hr at room temperature, binding buffer with 1 mM MnCl2; bound biotinylated-GRGDS detected with streptavidin-HRP polymer

| Binder | inhibitory activity of 20 nM peptide, as the equal concentration of cyclic-(GRGDSP) | inhibitory activity of 20 nM peptide, percent of that of 20 nM cyclic-(GRGDSP) |
| --- | --- | --- |
| SRGDASYTSDESSDDDNDSDSH [N-opened RGD] | 3.3 nM | 16.5% |
| SDESDTNSESANESGSRGDA [C-opened RGD] | 5.27 nM | 26.5% |
